For three sequences, Kd results are on record in the supplement of paper PMC6379048.

Holding throughout (assay): Kd (EC50 corrected by depletion factor)
For one data set, the target named is T1, HMGB2 (UniProt P26583).
T1 sequence: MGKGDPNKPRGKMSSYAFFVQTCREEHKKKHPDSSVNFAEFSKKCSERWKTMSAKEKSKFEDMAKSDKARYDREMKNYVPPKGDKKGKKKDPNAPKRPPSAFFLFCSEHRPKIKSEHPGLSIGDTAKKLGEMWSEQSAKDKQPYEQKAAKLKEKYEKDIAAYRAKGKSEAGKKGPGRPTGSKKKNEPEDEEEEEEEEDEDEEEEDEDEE
A digest of the protocol:
(§1)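 Free RNA oligos (0 nM to 30 μM) were pre-incubated with HEK293-FT lysate (2.5 mg protein/well) for 1 h at 4°C, followed by 30 min at 4°C with the same 5′-amino-C6 oligos coupled to NHS-Sepharose beads. Bound proteins were quantified by label-free LC-MS/MS and normalised to the control. EC50 was derived from a four-parameter log-logistic fit, and Kd was obtained by multiplying EC50 by a protein-dependent depletion factor.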

In a further data set the target is T2, RBM47 (UniProt A0AV96).
T2 sequence: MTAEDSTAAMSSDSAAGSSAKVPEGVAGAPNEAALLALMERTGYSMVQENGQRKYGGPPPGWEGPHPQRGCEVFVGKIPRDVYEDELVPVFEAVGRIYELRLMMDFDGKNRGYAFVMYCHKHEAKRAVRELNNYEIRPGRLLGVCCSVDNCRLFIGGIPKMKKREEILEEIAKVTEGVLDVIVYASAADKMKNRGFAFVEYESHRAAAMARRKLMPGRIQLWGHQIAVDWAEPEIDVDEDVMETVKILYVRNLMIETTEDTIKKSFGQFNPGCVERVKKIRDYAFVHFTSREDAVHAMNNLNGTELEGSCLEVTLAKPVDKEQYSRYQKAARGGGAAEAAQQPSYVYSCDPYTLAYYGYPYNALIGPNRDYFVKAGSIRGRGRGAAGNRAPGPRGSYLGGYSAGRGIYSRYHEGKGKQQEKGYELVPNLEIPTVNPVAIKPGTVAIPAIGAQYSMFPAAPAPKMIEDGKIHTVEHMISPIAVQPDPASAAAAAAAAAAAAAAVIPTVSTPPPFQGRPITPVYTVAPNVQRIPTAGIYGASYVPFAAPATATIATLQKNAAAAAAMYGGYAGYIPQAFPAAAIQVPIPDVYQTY
The procedure, abridged: as §1

For the next data set, the target named is RPL7 (UniProt P18124). The procedure, abridged:
as §1

A further data set concerns the target T3, SF3B5 (UniProt Q9BWJ5).
T3 sequence: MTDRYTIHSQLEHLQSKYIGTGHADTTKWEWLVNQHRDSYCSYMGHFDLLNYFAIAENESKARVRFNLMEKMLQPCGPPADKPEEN
A digest of the protocol: as §1

A further data set addresses T4, ANGEL2 (UniProt Q5VTE6).
T4 sequence: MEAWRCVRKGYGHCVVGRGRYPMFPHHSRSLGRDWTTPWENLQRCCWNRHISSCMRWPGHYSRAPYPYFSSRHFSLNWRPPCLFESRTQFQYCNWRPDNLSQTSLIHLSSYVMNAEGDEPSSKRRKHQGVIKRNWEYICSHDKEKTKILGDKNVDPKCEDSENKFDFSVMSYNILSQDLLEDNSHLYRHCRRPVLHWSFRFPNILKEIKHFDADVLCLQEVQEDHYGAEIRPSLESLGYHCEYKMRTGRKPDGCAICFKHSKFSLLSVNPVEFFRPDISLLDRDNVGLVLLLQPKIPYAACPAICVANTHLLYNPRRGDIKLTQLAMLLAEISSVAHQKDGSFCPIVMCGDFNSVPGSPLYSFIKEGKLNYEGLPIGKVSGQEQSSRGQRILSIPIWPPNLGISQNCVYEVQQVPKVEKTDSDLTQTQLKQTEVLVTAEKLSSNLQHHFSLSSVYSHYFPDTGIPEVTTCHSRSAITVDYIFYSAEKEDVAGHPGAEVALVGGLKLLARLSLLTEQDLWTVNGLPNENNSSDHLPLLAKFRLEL
The procedure, abridged:
as §1

The next data set concerns the target HNRNPK (UniProt P61978). A digest of the protocol: as §1
In another data set the target is MRPL39 (UniProt Q9NYK5). The procedure, abridged:
as §1

The target of a further data set is ATIC (UniProt P31939). A digest of the protocol: as §1
The target of a further data set is T5, FASTKD2 (UniProt Q9NYY8).
T5 sequence: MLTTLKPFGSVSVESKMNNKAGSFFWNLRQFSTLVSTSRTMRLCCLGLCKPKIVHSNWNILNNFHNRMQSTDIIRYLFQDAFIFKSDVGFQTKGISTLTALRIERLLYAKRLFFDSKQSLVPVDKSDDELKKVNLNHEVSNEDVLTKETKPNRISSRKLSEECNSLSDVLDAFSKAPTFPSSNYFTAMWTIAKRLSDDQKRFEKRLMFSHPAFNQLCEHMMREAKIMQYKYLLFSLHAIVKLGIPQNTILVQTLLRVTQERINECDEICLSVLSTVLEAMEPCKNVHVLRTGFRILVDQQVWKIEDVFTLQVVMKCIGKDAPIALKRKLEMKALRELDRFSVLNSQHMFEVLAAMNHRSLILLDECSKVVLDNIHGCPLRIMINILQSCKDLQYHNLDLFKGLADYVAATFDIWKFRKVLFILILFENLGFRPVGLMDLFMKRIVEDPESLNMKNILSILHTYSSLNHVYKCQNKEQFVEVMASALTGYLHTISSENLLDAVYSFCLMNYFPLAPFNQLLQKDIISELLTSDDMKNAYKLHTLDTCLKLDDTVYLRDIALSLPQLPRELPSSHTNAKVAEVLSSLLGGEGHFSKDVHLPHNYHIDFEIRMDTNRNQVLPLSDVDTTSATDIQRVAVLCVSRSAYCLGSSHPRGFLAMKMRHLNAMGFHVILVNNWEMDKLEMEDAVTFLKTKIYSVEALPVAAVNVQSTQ
The procedure, abridged: as §1

Another data set deals with MRPS25 (UniProt P82663). A digest of the protocol: as §1
For the next data set, the target named is MRPS27 (UniProt Q92552). The procedure, abridged:
as §1

A further data set has as its target PTCD3 (UniProt Q96EY7). A digest of the protocol: as §1

Chain of ATIC (P31939 whole entry, looked up): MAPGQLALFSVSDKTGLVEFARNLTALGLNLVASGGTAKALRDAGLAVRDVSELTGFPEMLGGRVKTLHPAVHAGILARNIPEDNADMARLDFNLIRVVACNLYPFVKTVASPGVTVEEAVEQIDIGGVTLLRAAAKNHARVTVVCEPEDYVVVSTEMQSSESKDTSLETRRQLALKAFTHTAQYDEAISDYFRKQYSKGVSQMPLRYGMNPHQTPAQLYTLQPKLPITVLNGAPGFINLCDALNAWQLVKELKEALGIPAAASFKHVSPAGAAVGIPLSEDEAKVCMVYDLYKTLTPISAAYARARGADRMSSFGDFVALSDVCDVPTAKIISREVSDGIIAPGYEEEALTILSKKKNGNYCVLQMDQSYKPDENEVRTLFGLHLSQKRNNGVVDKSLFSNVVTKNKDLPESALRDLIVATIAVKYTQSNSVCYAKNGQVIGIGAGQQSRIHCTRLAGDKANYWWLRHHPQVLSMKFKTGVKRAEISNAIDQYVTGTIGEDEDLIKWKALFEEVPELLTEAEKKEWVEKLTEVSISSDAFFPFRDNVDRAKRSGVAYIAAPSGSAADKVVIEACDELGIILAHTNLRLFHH

A word on the Kd: it is the constant that tells how readily two partners part at equilibrium. Read a low Kd as tighter binding. As to AAUAAA, the Kd in the data set with HMGB2 was determined as 2.05 nM; in the data set with RBM47, 417 nM; with RPL7, 3960 nM; with SF3B5 it was 766 nM.
Regarding CUGUCCU, the Kd amounted to 144 nM in the data set with ANGEL2, 1630 nM in the data set with HNRNPK and 101 nM with MRPL39.
In the case of UAUUUAU, the Kd with ATIC was 523 nM; with FASTKD2, 3890 nM; in the data set with MRPS25, 12.4 nM; with MRPS27 it was 49.8 nM; with PTCD3 it was 27.4 nM.
